{
  "source": "patent US20090317849",
  "key": {"[1]": {"molecular_target": "BSA (Bovine Serum Albumin) (UniProt P02769)", "sequence (P02769 25-607)": "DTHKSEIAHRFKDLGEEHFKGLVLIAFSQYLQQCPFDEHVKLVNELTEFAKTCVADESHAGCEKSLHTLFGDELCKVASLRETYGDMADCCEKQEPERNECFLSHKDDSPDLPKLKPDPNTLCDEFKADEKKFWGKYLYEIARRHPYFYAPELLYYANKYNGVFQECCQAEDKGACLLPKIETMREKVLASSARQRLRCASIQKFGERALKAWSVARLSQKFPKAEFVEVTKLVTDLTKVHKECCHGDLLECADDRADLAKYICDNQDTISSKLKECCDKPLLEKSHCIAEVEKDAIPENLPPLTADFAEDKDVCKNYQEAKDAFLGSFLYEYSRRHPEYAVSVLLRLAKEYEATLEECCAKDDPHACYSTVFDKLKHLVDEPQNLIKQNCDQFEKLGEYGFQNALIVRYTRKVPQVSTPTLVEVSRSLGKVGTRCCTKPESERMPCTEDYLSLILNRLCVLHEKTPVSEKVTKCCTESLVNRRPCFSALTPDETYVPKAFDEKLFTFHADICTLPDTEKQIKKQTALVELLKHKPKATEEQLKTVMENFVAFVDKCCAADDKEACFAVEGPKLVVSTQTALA"}, "[2]": {"tested_on": "T1, PKC (Protein Kinase C) matrix AAKIQASFRGHMARKK", "T1 sequence": "AAKIQASFRGHMARKK"}, "[3]": {"tested_on": "recombinant Mep45-kinase matrix fusion protein (PKC matrix)"}, "[4]": {"tested_on": "T2, cdc2-PK (cdc2 Protein Kinase) matrix PKTPKKAKKL", "T2 sequence": "PKTPKKAKKL"}, "[5]": {"tested_on": "recombinant Mep45-kinase matrix fusion protein (cdc2-PK matrix)"}},
  "data": [
    {"substance": "PKC (Protein Kinase C)", "values": [
      {"measurement": "phosphorylation on chip with [gamma-32P]ATP, X-ray film or X-ray fluorescence spectrometer", "setting": "[1]", "value": "no signal was detected on the spot of BSA (negative control)"},
      {"measurement": "phosphorylation on chip with [gamma-32P]ATP, X-ray film or X-ray fluorescence spectrometer", "setting": "[2]", "value": "clear signal was detected on the spot of AAKIQASFRGHMARKK matrix (FIG. 5A)"},
      {"measurement": "phosphorylation on chip with [gamma-32P]ATP, X-ray film or X-ray fluorescence spectrometer", "setting": "[3]", "value": "clear signal was detected on the spot of ... Mep45 fusion matrix (FIG. 5B)"}
    ]},
    {"substance": "cdc2 protein kinase", "values": [
      {"measurement": "phosphorylation on chip with [gamma-32P]ATP, X-ray film or X-ray fluorescence spectrometer", "setting": "[1]", "value": "no signal was detected on the spot of BSA (negative control)"},
      {"measurement": "phosphorylation on chip with [gamma-32P]ATP, X-ray film or X-ray fluorescence spectrometer", "setting": "[4]", "value": "clear signal was detected on the spot of PKTPKKAKKL matrix (FIG. 4A)"},
      {"measurement": "phosphorylation on chip with [gamma-32P]ATP, X-ray film or X-ray fluorescence spectrometer", "setting": "[5]", "value": "clear signal was detected on the spot of ... Mep45 fusion matrix (FIG. 4B)"}
    ]}
  ]
}
